Data as given in publication PMC6510891, “Functional duplication of Rap1 in methylotrophic yeasts”.

Experiments:
[1] = biological target: T1, HpRap1A (Hansenula polymorpha DL-1, UniProt W1Q7Z6 1-613); experiment: SPR; kinetic fit; equilibrium Kd 38±15; SPR: 10 mM HEPES-NaOH pH 7.5, 150 mM NaCl, 0.5 mM DTT, 0.05% Tween 20, 1 mg/ml BSA, 0.02 mg/ml salmon sperm DNA; competition 2 nM protein with 20 or 200 nM competitor. EMSA: 20 mM HEPES-NaOH pH 7.5, 50 mM NaCl, 0.2 mg/ml BSA, 5% glycerol, 0.1 mg/ml salmon sperm DNA, room temperature; details: protein: recombinant; 3' overhang 20 nt on strand 2
T1 sequence: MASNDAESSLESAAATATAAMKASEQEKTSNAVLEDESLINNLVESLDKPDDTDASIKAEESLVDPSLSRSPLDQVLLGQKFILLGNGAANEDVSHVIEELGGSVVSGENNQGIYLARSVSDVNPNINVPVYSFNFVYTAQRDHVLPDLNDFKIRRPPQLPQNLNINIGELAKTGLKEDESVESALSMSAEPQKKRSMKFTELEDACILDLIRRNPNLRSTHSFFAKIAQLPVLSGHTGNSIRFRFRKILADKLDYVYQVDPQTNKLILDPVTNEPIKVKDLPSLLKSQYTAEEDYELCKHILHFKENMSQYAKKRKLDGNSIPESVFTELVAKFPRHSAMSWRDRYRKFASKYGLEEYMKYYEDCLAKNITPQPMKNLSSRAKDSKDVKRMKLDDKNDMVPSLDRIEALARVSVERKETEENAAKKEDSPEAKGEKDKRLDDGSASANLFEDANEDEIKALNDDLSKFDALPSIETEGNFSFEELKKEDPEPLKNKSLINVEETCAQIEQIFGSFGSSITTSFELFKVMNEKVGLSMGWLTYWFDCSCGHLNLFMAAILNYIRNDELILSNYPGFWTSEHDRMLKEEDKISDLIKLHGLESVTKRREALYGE

[2] = biological target: T1, HpRap1A; experiment: SPR; SPR: 10 mM HEPES-NaOH pH 7.5, 150 mM NaCl, 0.5 mM DTT, 0.05% Tween 20, 1 mg/ml BSA, 0.02 mg/ml salmon sperm DNA; competition 2 nM protein with 20 or 200 nM competitor. EMSA: 20 mM HEPES-NaOH pH 7.5, 50 mM NaCl, 0.2 mg/ml BSA, 5% glycerol, 0.1 mg/ml salmon sperm DNA, room temperature; details: protein: recombinant; 3' overhang 20 nt on strand 2
[3] = biological target: T2, HpRap1B (Hansenula polymorpha DL-1, UniProt W1QDN2 1-576); experiment: SPR; kinetic fit; equilibrium Kd 11±1; SPR: 10 mM HEPES-NaOH pH 7.5, 150 mM NaCl, 0.5 mM DTT, 0.05% Tween 20, 1 mg/ml BSA, 0.02 mg/ml salmon sperm DNA; competition 2 nM protein with 20 or 200 nM competitor. EMSA: 20 mM HEPES-NaOH pH 7.5, 50 mM NaCl, 0.2 mg/ml BSA, 5% glycerol, 0.1 mg/ml salmon sperm DNA, room temperature; details: protein: recombinant; 3' overhang 20 nt on strand 2
T2 sequence: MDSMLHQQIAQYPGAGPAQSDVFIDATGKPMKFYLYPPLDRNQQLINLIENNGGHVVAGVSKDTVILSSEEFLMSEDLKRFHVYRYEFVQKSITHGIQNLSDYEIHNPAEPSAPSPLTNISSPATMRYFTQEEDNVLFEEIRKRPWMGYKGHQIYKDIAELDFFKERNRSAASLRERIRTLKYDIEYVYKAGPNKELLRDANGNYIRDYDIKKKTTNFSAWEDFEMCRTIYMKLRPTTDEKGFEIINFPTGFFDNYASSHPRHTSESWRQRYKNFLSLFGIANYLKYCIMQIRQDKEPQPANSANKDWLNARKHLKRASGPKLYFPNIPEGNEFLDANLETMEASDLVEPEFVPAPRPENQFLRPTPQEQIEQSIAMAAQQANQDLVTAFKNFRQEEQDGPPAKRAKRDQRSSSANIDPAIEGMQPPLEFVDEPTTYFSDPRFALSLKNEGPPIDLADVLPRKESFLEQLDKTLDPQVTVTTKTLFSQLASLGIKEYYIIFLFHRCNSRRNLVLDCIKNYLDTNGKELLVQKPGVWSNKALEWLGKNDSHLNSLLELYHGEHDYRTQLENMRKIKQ

[4] = biological target: T1, HpRap1A; experiment: EMSA; up to 250 nM protein, 50 nM DNA; SPR: 10 mM HEPES-NaOH pH 7.5, 150 mM NaCl, 0.5 mM DTT, 0.05% Tween 20, 1 mg/ml BSA, 0.02 mg/ml salmon sperm DNA; competition 2 nM protein with 20 or 200 nM competitor. EMSA: 20 mM HEPES-NaOH pH 7.5, 50 mM NaCl, 0.2 mg/ml BSA, 5% glycerol, 0.1 mg/ml salmon sperm DNA, room temperature; details: protein: recombinant; label: 5' FAM on strand 1; blunt
[5] = biological target: T2, HpRap1B; experiment: as above; details: protein: recombinant; label: 5' FAM on strand 1; blunt
[6] = biological target: T1, HpRap1A; experiment: competition SPR; score - vs VIIrAbs surface; SPR: 10 mM HEPES-NaOH pH 7.5, 150 mM NaCl, 0.5 mM DTT, 0.05% Tween 20, 1 mg/ml BSA, 0.02 mg/ml salmon sperm DNA; competition 2 nM protein with 20 or 200 nM competitor. EMSA: 20 mM HEPES-NaOH pH 7.5, 50 mM NaCl, 0.2 mg/ml BSA, 5% glycerol, 0.1 mg/ml salmon sperm DNA, room temperature; details: protein: recombinant; blunt
[7] = biological target: T2, HpRap1B; experiment: competition SPR; score +++ vs PICKU surface; SPR: 10 mM HEPES-NaOH pH 7.5, 150 mM NaCl, 0.5 mM DTT, 0.05% Tween 20, 1 mg/ml BSA, 0.02 mg/ml salmon sperm DNA; competition 2 nM protein with 20 or 200 nM competitor. EMSA: 20 mM HEPES-NaOH pH 7.5, 50 mM NaCl, 0.2 mg/ml BSA, 5% glycerol, 0.1 mg/ml salmon sperm DNA, room temperature; details: protein: recombinant; blunt
[8] = biological target: T2, HpRap1B; experiment: SPR; SPR: 10 mM HEPES-NaOH pH 7.5, 150 mM NaCl, 0.5 mM DTT, 0.05% Tween 20, 1 mg/ml BSA, 0.02 mg/ml salmon sperm DNA; competition 2 nM protein with 20 or 200 nM competitor. EMSA: 20 mM HEPES-NaOH pH 7.5, 50 mM NaCl, 0.2 mg/ml BSA, 5% glycerol, 0.1 mg/ml salmon sperm DNA, room temperature; details: protein: recombinant; 3' overhang 20 nt on strand 2
[9] = biological target: T1, HpRap1A; experiment: SPR; kinetic fit; equilibrium Kd 12±3; SPR: 10 mM HEPES-NaOH pH 7.5, 150 mM NaCl, 0.5 mM DTT, 0.05% Tween 20, 1 mg/ml BSA, 0.02 mg/ml salmon sperm DNA; competition 2 nM protein with 20 or 200 nM competitor. EMSA: 20 mM HEPES-NaOH pH 7.5, 50 mM NaCl, 0.2 mg/ml BSA, 5% glycerol, 0.1 mg/ml salmon sperm DNA, room temperature; details: protein: recombinant; 3' overhang 20 nt on strand 2
[10] = biological target: T2, HpRap1B; experiment: SPR; kinetic fit; equilibrium Kd 1.7±0.2; SPR: 10 mM HEPES-NaOH pH 7.5, 150 mM NaCl, 0.5 mM DTT, 0.05% Tween 20, 1 mg/ml BSA, 0.02 mg/ml salmon sperm DNA; competition 2 nM protein with 20 or 200 nM competitor. EMSA: 20 mM HEPES-NaOH pH 7.5, 50 mM NaCl, 0.2 mg/ml BSA, 5% glycerol, 0.1 mg/ml salmon sperm DNA, room temperature; details: protein: recombinant; 3' overhang 20 nt on strand 2
[11] = biological target: T2, HpRap1B; experiment: SPR; kinetic fit; equilibrium Kd 1.9±0.1; SPR: 10 mM HEPES-NaOH pH 7.5, 150 mM NaCl, 0.5 mM DTT, 0.05% Tween 20, 1 mg/ml BSA, 0.02 mg/ml salmon sperm DNA; competition 2 nM protein with 20 or 200 nM competitor. EMSA: 20 mM HEPES-NaOH pH 7.5, 50 mM NaCl, 0.2 mg/ml BSA, 5% glycerol, 0.1 mg/ml salmon sperm DNA, room temperature; details: protein: recombinant; 3' overhang 20 nt on strand 2
[12] = biological target: T1, HpRap1A; experiment: SPR; kinetic fit; equilibrium Kd 1.8±0.5; SPR: 10 mM HEPES-NaOH pH 7.5, 150 mM NaCl, 0.5 mM DTT, 0.05% Tween 20, 1 mg/ml BSA, 0.02 mg/ml salmon sperm DNA; competition 2 nM protein with 20 or 200 nM competitor. EMSA: 20 mM HEPES-NaOH pH 7.5, 50 mM NaCl, 0.2 mg/ml BSA, 5% glycerol, 0.1 mg/ml salmon sperm DNA, room temperature; details: protein: recombinant; 3' overhang 20 nt on strand 2
[13] = biological target: T2, HpRap1B; experiment: SPR; kinetic fit; equilibrium Kd 65±2; SPR: 10 mM HEPES-NaOH pH 7.5, 150 mM NaCl, 0.5 mM DTT, 0.05% Tween 20, 1 mg/ml BSA, 0.02 mg/ml salmon sperm DNA; competition 2 nM protein with 20 or 200 nM competitor. EMSA: 20 mM HEPES-NaOH pH 7.5, 50 mM NaCl, 0.2 mg/ml BSA, 5% glycerol, 0.1 mg/ml salmon sperm DNA, room temperature; details: protein: recombinant; 3' overhang 20 nt on strand 2
[14] = biological target: T1, HpRap1A; experiment: SPR; kinetic fit; SPR: 10 mM HEPES-NaOH pH 7.5, 150 mM NaCl, 0.5 mM DTT, 0.05% Tween 20, 1 mg/ml BSA, 0.02 mg/ml salmon sperm DNA; competition 2 nM protein with 20 or 200 nM competitor. EMSA: 20 mM HEPES-NaOH pH 7.5, 50 mM NaCl, 0.2 mg/ml BSA, 5% glycerol, 0.1 mg/ml salmon sperm DNA, room temperature; details: protein: recombinant; 3' overhang 20 nt on strand 2

B1: SACCE (SPR) (dsDNA)
DNA 1: GTGTGTGGGTGTGTGGGTGTGTG
DNA 2: CACACACCCACACACCCACACACCCTCTACGTCCTCCTGCTCC
Work on B1 yielded a Kd [1] of 39 ± 15 nM.

B2: HANPO2 (SPR) (dsDNA)
DNA 1: GGGTGGCGGGGTGGCG
DNA 2: CGCCACCCCGCCACCCCCTCTACGTCCTCCTGCTCC
In the case of B2, the binding result [2] is reported as “no binding” and the Kd [3] is reported as 12 ± 1 nM.

B3: FAM-HANPO2 (dsDNA)
DNA 1: GGGTGGCGGGGTGGCG
DNA 2: CGCCACCCCGCCACCC
B3: no binding [4]; binds [5].

B4: PICKU (competitor) (dsDNA)
DNA 1: TGAACTAGGAGCGAGGTGTGTTAC
DNA 2: GTAACACACCTCGCTCCTAGTTCA
B4: no binding [6]; binds [7].

B5: RPS0a (dsDNA)
DNA 1: AGAGGGCTGTGCACGGATGCTAT
DNA 2: ATAGCATCCGTGCACAGCCCTCTCCTCTACGTCCTCCTGCTCC
B5 was tested, and the binding result [8] was “no binding” and the Kd [9] was 10 ± 4 nM.

B6: RPS0b (dsDNA)
DNA 1: ATTTCTTGGTGCGAGGGGGCTCT
DNA 2: AGAGCCCCCTCGCACCAAGAAATCCTCTACGTCCTCCTGCTCC
B6 was tested, and the Kd [10] was 1.5 ± 0.4 nM and the binding result [2] was “no binding”.

B7: RPL5a (dsDNA)
DNA 1: CTTGTGTGGTGCAGGGGTGGCAG
DNA 2: CTGCCACCCCTGCACCACACAAGCCTCTACGTCCTCCTGCTCC
Work on B7 yielded a Kd [11] of 2 nM and a Kd [12] of 1.4 ± 0.3 nM.

B8: VIIrAbs (SPR) (dsDNA)
DNA 1: GGCAGGCGGTGTAGGGATGCGGC
DNA 2: GCCGCATCCCTACACCGCCTGCCCCTCTACGTCCTCCTGCTCC
Work on B8 yielded a Kd [13] of 64 ± 2 nM and a Kd [14] of 0.28 ± 0.09 nM.
